As usually defined, the Kd is the equilibrium constant for the complex coming apart.

Sequences and labels used below:
T1: CDH17 (UniProt Q12864 23-787, limits assumed)
T1 construct: also called cadherin 17
T1 sequence (looked up): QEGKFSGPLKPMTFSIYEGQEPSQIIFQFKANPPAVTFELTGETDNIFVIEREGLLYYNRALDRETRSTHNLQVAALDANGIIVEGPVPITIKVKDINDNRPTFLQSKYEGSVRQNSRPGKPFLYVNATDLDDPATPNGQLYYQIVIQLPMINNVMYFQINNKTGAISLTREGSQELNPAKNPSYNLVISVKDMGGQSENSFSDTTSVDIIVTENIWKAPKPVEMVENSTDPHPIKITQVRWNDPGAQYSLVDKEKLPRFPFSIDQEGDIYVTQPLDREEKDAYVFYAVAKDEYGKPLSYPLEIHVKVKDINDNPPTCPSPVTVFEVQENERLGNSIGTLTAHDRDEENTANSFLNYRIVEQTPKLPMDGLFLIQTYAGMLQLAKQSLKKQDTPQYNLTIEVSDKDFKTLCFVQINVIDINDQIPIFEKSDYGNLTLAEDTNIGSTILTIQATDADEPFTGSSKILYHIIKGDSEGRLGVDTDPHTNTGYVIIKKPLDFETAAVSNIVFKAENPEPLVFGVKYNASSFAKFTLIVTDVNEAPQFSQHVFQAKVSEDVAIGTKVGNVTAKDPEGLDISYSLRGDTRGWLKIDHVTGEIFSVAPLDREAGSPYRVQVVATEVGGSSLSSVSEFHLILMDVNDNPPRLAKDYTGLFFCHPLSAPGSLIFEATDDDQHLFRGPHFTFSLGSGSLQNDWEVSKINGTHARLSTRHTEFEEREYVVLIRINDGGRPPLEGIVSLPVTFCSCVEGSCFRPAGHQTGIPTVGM

B1: CDH17_vhh_0001 (VHH)
VHH: QVQLQESGGGLVQPGGSTRLSCVSSRTFSYYDMGWFRQAPGKEREFVALLSWNGENAEYSDSVMGRFTVSRGNTQNSVNLQMNNLKPEDTGIYYCAVTHGGARSVRSWGQGTQVTVSS
notes: also called parental VHH-0001
B2: CDH17_vhh_0271 (VHH)
VHH: QVQLQESGGGLVQPGGSTRLSCVSSRTFSYYDMGWFRQAPGKEREFVALLSWRGNNAEYSDSVMGRFVVSRGNTQNSVNLQMNNLKPEDTGIYYCAVTYGVARSVRSWGQGTQVTVSS
B3: CDH17_vhh_0267 (VHH)
VHH: QVQLQESGGGLVQPGGSTRLSCVSSRTFSYYDMGWFRYAPGKEREFVALLSWRGNNAEYADSVMGRFTVSRGNTQNSVNLQMNNLKPEDTGIYYCAVTYGGARSVRSWGQGTQVTVSS
B4: CDH17_vhh_0263 (VHH)
VHH: QVQLQESGGGLVQPGGSTRLSCVSSRTFSYYDMGWFRQAPGKEREFVALLSWRGNYAEYSDSVMGRFVVSRGNTQNSVNLQMNNLKPEDTGIYYCAVTYGGARSVRSWGQGTQVTVSS
B5: CDH17_vhh_0173 (VHH)
VHH: QVQLQESGGGLVQPGGSTRLSCVSSRTFSYYDMGWFRQAPGKEREFVALLSWRGNNAEYRDSVMGRFTVSRGNTQNSVNLQMNNLKPEDTGIYYCAVTYGGARSVRSWGQGTQVTVSS
B6: CDH17_vhh_0675 (VHH)
VHH: QVQLQESGGGLVQPGGSTRLSCVSSRTFSYYDMGWFRQAPGKEREFVALLSWRGNNAEYSDTVMGRFTVSRGNTQNSVNLQMNNLKPEDTGIYYCAVTYGGARSVRAWGQGTQVTVSS
B7: CDH17_vhh_0676 (VHH)
VHH: QVQLQESGGGLVQPGGSTRLSCVSSRTFSYYDMGWFRQAPGKEREFVALLSWRGNNAEYSDDVMGRFTVSRGNTQNSVNLQMNNLKPEDTGIYYCAVTYGTARSVRSWGQGTQVTVSS
B8: CDH17_vhh_0622 (VHH)
VHH: QVQLQESGGGLVQPGGSTRLSCVSSITFSYYDMGWFRQAPGKEREFVALLSWRGENAEYSDSVMGRFTVSRGNTQNSVNLQMNNLKPEDTGIYYCAVTYGGARSVRSWGQGTQVTVSS
B9: CDH17_vhh_0650 (VHH)
VHH: QVQLQESGGGLVQPGGSTRLSCVSSRTFSYYDMGWFRQAPGKEREFVALLSWRGNNAEYRDSVMGRFTVSRGNTQNSVNLQMNNLKPEDTGIYYCAVTYGGAKSVRLWGQGTQVTVSS
B10: CDH17_vhh_0156 (BHB156) (VHH)
VHH: QVQLQESGGGLVQPGGSTRLSCVSSRTFSYYDMGWFRQAPGKEREFVALLSWRGNNAEYSDSVMGRFTVSRGNTQNSVNLQMNNLKPEDTGIYYCAVTYGGARSVRSWGQGTQVTVSS
B11: CDH17_vhh_0648 (VHH)
VHH: QVQLQESGGGLVQPGGSTRLSCVSSRTFSYYDMGWFRQAPGKEREFVALLSWRGNNAEYSDSVMGRFVVSRGNTQNSVNLQMNNLKPEDTGIYYCAVTYGVAKSVRSWGQGTQVTVSS
B12: CDH17_vhh_0262 (VHH)
VHH: QVQLQESGGGLVQPGGSTRLSCVSSRTFSYYDMGWFRQAPGKEREFVALLSWRGNNAEYSDTVMGRFTVSRGNTQNSVNLQMNNLKPEDTGIYYCAVTYGGARSVRSWGQGTQVTVSS
B13: CDH17_vhh_0274 (VHH)
VHH: QVQLQESGGGLVQPGGSTRLSCVSSRTFSYYDMGWFRQAPGKEREFVALLSWRGNNAEYSDSVMGRFVVSRGNTQNSVNLQMNNLKPEDTGIYYCAVTYGGAKSVRSWGQGTQVTVSS
B14: CDH17_vhh_0652 (VHH)
VHH: QVQLQESGGGLVQPGGSTRLSCVSSRTFSYYDMGWFRQYPGKEREFVALLSWRGNYAEYSDSVMGRFVVSRGNTQNSVNLQMNNLKPEDTGIYYCAVTYGGARSVRLWGQGTQVTVSS
B15: CDH17_vhh_0395 (VHH)
VHH: QVQLQESGGGLVQPGGSTRLSCVSSRTFSYYDMGWFRQAPGKEREFVALLSWRGNNAEYSESVMGRFTVSRGNTQNSVNLQMNNLKPEDTGIYYCAVTYGGARSVRSWGQGTQVTVSS
B16: CDH17_vhh_0674 (VHH)
VHH: QVQLQESGGGLVQPGGSTRLSCVSSRTFSYYDMGWFRQAPGKEREFVALLSWRGNNAEYSDTVMGRFTVSRGNTQNSVNLQMNNLKPEDTGIYYCAVTYGGARSVRKWGQGTQVTVSS
B17: CDH17_vhh_0372 (VHH)
VHH: QVQLQESGGGLVQPGGSTRLSCVSSRTFSYYDMGWFRQAPGKEREFVALLDWRGNNAEYSDSVMGRFTVSRGNTQNSVNLQMNNLKPEDTGIYYCAVTYGGARSVRSWGQGTQVTVSS
B18: CDH17_vhh_0646 (VHH)
VHH: QVQLQESGGGLVQPGGSTRLSCVSSRTFSYYDMGWFRQAPGKEREFVALLSWRGNNAEYRDSVMGRFTVSRGNTQNSVNLQMNNLKPEDTGIYYCAVTYGGARSVRLWGQGTQVTVSS
B19: CDH17_vhh_0591 (VHH)
VHH: QVQLQESGGGLVQPGGSTRLSCVSSRTFSYYDMGWFRQAPGKEREFVALLSWRGNNAEYSDSVMGRFTVSRGNTQNSVNLQMNNLKPEDTGIYYCAVTYGGARSVRLWGQGTQVTVSS
B20: CDH17_vhh_0651 (VHH)
VHH: QVQLQESGGGLVQPGGSTRLSCVSSRTFSYYDMGWFRQYPGKEREFVALLSWRGNNAEYSDSVMGRFVVSRGNTQNSVNLQMNNLKPEDTGIYYCAVTLGVARSVRSWGQGTQVTVSS
B21: CDH17_vhh_0632 (VHH)
VHH: QVQLQESGGGLVQPGGSTRLSCVSSRTFSYYDMGWFRQAPGKEREFVALLSWRGERAEYSDSVMGRFTVSRGNTQNSVNLQMNNLKPEDTGIYYCAVTYGGARSVRSWGQGTQVTVSS
B22: CDH17_vhh_0670 (VHH)
VHH: QVQLQESGGGLVQPGGSTRLSCVSSRTFSYYDMGWFRQAPGKEREFVALLDWRGNYAEYSDSVMGRFTVSRGNTQNSVNLQMNNLKPEDTGIYYCAVTYGGARSVRSWGQGTQVTVSS
B23: CDH17_vhh_0259 (VHH)
VHH: QVQLQESGGGLVQPGGSTRLSCVSSRTFSYYDMGWFRQYPGKEREFVALLSWRGNNAEYSDSVMGRFTVSRGNTQNSVNLQMNNLKPEDTGIYYCAVTYGGARSVRSWGQGTQVTVSS
B24: CDH17_vhh_0653 (VHH)
VHH: QVQLQESGGGLVQPGGSTRLSCVSSRTFSYYDMGWFRQAPGKEREFVALLSWRGINAEYSDTVMGRFVVSRGNTQNSVNLQMNNLKPEDTGIYYCAVTYGVARSVRSWGQGTQVTVSS
B25: CDH17_vhh_0587 (VHH)
VHH: QVQLQESGGGLVQPGGSTRLSCVSSRTFSYYDMGWFRQAPGKEREFVALLSWRGINAEYSDSVMGRFTVSRGNTQNSVNLQMNNLKPEDTGIYYCAVTYGGARSVRSWGQGTQVTVSS
B26: CDH17_vhh_0629 (VHH)
VHH: QVQLQESGGGLVQPGGSTRLSCVSSRTFSYYDMGWFRQAPGKEREFVALLDWRGENAEYSDSVMGRFTVSRGNTQNSVNLQMNNLKPEDTGIYYCAVTYGGARSVRSWGQGTQVTVSS
B27: CDH17_vhh_0613 (VHH)
VHH: QVQLQESGGGLVQPGGSTRLSCVSSRTFSYYDMGWFRQAPGKEREFVALLSWRGENAEYSDSVMGRFTVSRGNTQNSVNLQMNNLKPEDTGIYYCAVTYGGARSVRSWGQGTQVTVSS
B28: CDH17_vhh_0645 (VHH)
VHH: QVQLQESGGGLVQPGGSTRLSCVSSRTFSYYDMGWFRQYPGKEREFVALLSWRGNYAEYSDSVMGRFVVSRGNTQNSVNLQMNNLKPEDTGIYYCAVTYGGARSVRSWGQGTQVTVSS
B29: CDH17_vhh_0644 (VHH)
VHH: QVQLQESGGGLVQPGGSTRLSCVSSRTFSYYDMGWFRQAPGKEREFVALLSWRGNNAEYRDSVMGRFVVSRGNTQNSVNLQMNNLKPEDTGIYYCAVTYGVARSVRSWGQGTQVTVSS
B30: CDH17_vhh_0672 (VHH)
VHH: QVQLQESGGGLVQPGGSTRLSCVSSRTFSYYDMGWFRQAPGKEREFVALLSWRGNNAEYSDSVHGRFTVSRGNTQNSVNLQMNNLKPEDTGIYYCAVTYGGARSVRLWGQGTQVTVSS

For this experiment, the target named is T1, CDH17. Kind of experiment: method not stated; KD at pH 7.4.
Molecule B1 returned a Kd of 27.2 nM.

As for B2, binding was put at a Kd of 2.82 nM.

The molecule B3 gave a Kd of 5.08 nM.

Regarding B4, the dissociation constant Kd was determined as 3.94 nM.

B5 gave a Kd of 4.94 nM.

As to B6, the Kd was 3.89 nM.

For the molecule B7, the Kd was found to be 4.36 nM.

For B8, the Kd was determined as 2.93 nM.

B9 displayed a Kd of 2.45 nM.

Molecule B10 had a Kd of 7.59 nM.

Molecule B11 showed a dissociation constant Kd of 2.18 nM.

In the case of B12, the dissociation constant (Kd) came to 5.14 nM.

Take B13: the dissociation constant Kd is 4.35 nM.

In turn, B14 gave a dissociation constant Kd of 3.3 nM.

The molecule B15 gave a dissociation constant Kd of 5.47 nM.

B16 gave a Kd of 3.79 nM.

For B17, the affinity, expressed as Kd, was 4.85 nM.

Consider B18, for which binding was characterised by a dissociation constant (Kd) of 2.63 nM.

With B19, the dissociation constant Kd came to 3.21 nM.

With B20, the Kd turned out to be 3.71 nM.

For B21, the dissociation constant Kd came out at 4.9 nM.

Molecule B22 showed a Kd of 4.53 nM.

B23 showed a Kd of 4.75 nM.

In the case of B24, binding was characterised by a dissociation constant (Kd) of 3.12 nM.

For B25, the Kd turned out to be 5.01 nM.

For the molecule B26, the dissociation constant Kd stood at 4.96 nM.

Molecule B27 yielded a Kd of 4.85 nM.

B28 registered a Kd of 5.17 nM.

B29 showed a Kd of 3.32 nM.

Molecule B30 registered a dissociation constant (Kd) of 3.76 nM.

These data come from patent publication US20260167737A1 (BIGHAT BIOSCIENCES, published 2026).
